Measured values reported in the supplement of paper PMC10598134.
± gives the standard deviation.

Experiment: collision cross section of modified peptide (TIMS, N2, iRT-aligned); higher = larger / more extended gas-phase ion
Summary of the method: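 Collision cross section was derived from the Mason-Schamp equation. Each value averages 1–3 technical replicates of the most abundant feature per charge state, measured on a timsTOF Pro/HT in dda-PASEF mode (nitrogen, ~2.4 mbar) after a 120-min nanoflow C18 gradient at 60 °C. Synthetic peptide pools (~100 fmol/µL in 2% acetonitrile/0.1% formic acid, iRT standard spiked 1:40) were identified with MaxQuant, and 1/K0 was calibrated with three reference ions and aligned run-wise to the median iRT peptide deviation.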

[1] = charge state: 2, modification: Glutarylation
[2] = charge state: 3, modification: Glutarylation
[3] = charge state: 2, modification: hydroxyisobutyryl
[4] = charge state: 2, modification: Biotin
[5] = charge state: 3, modification: Biotin
[6] = charge state: 2, modification: Phospho (Y)
[7] = charge state: 2, modification: Acetyl (K)
[8] = charge state: 3, modification: Acetyl (K)
[9] = charge state: 2, modification: GlyGly (K)
[10] = charge state: 3, modification: GlyGly (K)
[11] = charge state: 2, modification: Malonyl
[12] = charge state: 3, modification: Butyryl
[13] = charge state: 2, modification: Methyl (R)
[14] = charge state: 3, modification: Methyl (R)

ATVASSTQKFQDLGVK [_ATVASSTQK(Gluratylation)FQDLGVK_]
collision cross section [1]: 449.16 ± 1.1 Å²
collision cross section [2]: 497.84 ± 1.7 Å²

VNVEAPDVNLEGLGGKLK [_VNVEAPDVNLEGLGGK(hydroxyisobutyryl)LK_]
collision cross section [3]: 461.55 ± 2 Å²
collision cross section (charge state: 3, modification: hydroxyisobutyryl): 550.67 ± 0.8 Å²

GEGGFGGRGGGR [_GEGGFGGR(Citrullination (R))GGGR_]
collision cross section (charge state: 2, modification: Citrullination (R)): 329.76 ± 0.38 Å²

DDSFLGKLGGTLAR [_DDSFLGK(Biotin)LGGTLAR_]
collision cross section [4]: 427.7 ± 0.62 Å²
collision cross section [5]: 505.13 Å²

AIQLNPSYIR [_AIQLNPSY(Phospho (Y))IR_]
collision cross section [6]: 384.89 ± 0.65 Å²

DLGKFQVATDALK [_DLGK(hydroxyisobutyryl)FQVATDALK_]
collision cross section [3]: 409.13 ± 0.55 Å²

LFVGGIKEDTEEHHLR [_LFVGGIK(Acetyl (K))EDTEEHHLR_]
collision cross section [7]: 494.34 Å²
collision cross section [8]: 543.04 ± 0.75 Å²

ALLQAKASGK [_ALLQAK(Acetyl (K))ASGK_]
collision cross section [7]: 343.77 ± 0.2 Å²

SLEEEGAAHSGKR [_SLEEEGAAHSGK(Gluratylation)R_]
collision cross section [1]: 420.5 ± 2 Å²
collision cross section [2]: 475.56 ± 1.7 Å²

TGGTQTDLFTCGKCK [_TGGTQTDLFTCGK(GlyGly (K))CK_]
collision cross section [9]: 442.06 Å²
collision cross section [10]: 489.77 ± 1.1 Å²

LEQVEKELLR [_LEQVEK(Acetyl (K))ELLR_]
collision cross section [7]: 385.81 ± 0.48 Å²

ITESVAETAQTIKK [_ITESVAET(HexNAc (ST))AQTIKK_]
collision cross section (charge state: 2, modification: HexNAc (ST)): 456.71 ± 0.56 Å²
collision cross section (charge state: 3, modification: HexNAc (ST)): 499.78 ± 0.18 Å²

DYSVTANSK [_DY(Phospho (Y))SVTANSK_]
collision cross section [6]: 332.04 ± 0.69 Å²

DLGKFQVATDALK [_DLGK(GlyGly (K))FQVATDALK_]
collision cross section [9]: 422.76 ± 0.97 Å²
collision cross section [10]: 498.2 ± 1.1 Å²

DAEAAEATAEGALKAEK [_DAEAAEATAEGALK(Acetyl (K))AEK_]
collision cross section [7]: 451.64 ± 19 Å²
collision cross section [8]: 539.19 ± 1.8 Å²

SLEEEGAAHSGKR [_SLEEEGAAHSGK(Malonyl)R_]
collision cross section [11]: 414.03 ± 1.2 Å²

GRGVGSPEPGPTAPYLGRR [_GR(Citrullination (R))GVGSPEPGPTAPYLGRR_]
collision cross section (charge state: 3, modification: Citrullination (R)): 497.66 ± 1.9 Å²

VGTASVLQPVKK [_VGTASVLQPVK(Gluratylation)K_]
collision cross section [1]: 391.34 ± 0.52 Å²
collision cross section [2]: 415.52 ± 3.5 Å²

ISSNFSSIIAEKLR [_ISSNFSSIIAEK(Acetyl (K))LR_]
collision cross section [7]: 428.83 ± 3 Å²
collision cross section [8]: 506.75 Å²

AAQASDLEKIHLDEK [_AAQASDLEK(Dimethyl (K))IHLDEK_]
collision cross section (charge state: 3, modification: Dimethyl (K)): 503.12 ± 0.75 Å²

PSVSTKLISK [_PSVSTK(Dimethyl (K))LISK_]
collision cross section (charge state: 2, modification: Dimethyl (K)): 362.9 ± 0.28 Å²

DYSAPVNFISAGLKK [_DYSAPVNFISAGLK(Biotin)K_]
collision cross section [4]: 458.59 ± 0.47 Å²
collision cross section [5]: 548.62 Å²

SNEEGSEEKGPEVR [_SNEEGSEEK(Butyryl)GPEVR_]
collision cross section (charge state: 2, modification: Butyryl): 407.11 ± 0.23 Å²
collision cross section [12]: 490.17 Å²

IHNAENIQPGEQKYEYK [_IHNAENIQPGEQK(Butyryl)YEYK_]
collision cross section [12]: 530.34 ± 2.7 Å²

DAIHFYNKSLAEHR [_DAIHFYNK(Trimethyl (K))SLAEHR_]
collision cross section (charge state: 3, modification: Trimethyl (K)): 498.17 ± 1.1 Å²

PDTQYTGR [_PDTQY(Nitro (Y))TGR_]
collision cross section (charge state: 2, modification: Nitro (Y)): 325.57 ± 0.55 Å²

SRFYSGFNSR [_SR(Methyl (R))FYSGFNSR_]
collision cross section [13]: 375.99 ± 1.6 Å²
collision cross section [14]: 436.64 ± 3.4 Å²

RGATPPAPPR [_R(Methyl (R))GATPPAPPR_]
collision cross section [13]: 338.68 ± 2.1 Å²
collision cross section [14]: 463.88 ± 2.9 Å²

TSAYGPPTR [_TSAY(Phospho (Y))GPPTR_]
collision cross section [6]: 336.75 ± 0.067 Å²

LLEQKTQESQK [_LLEQK(Malonyl)TQESQK_]
collision cross section [11]: 397.91 ± 0.65 Å²

TTEETSKPK [_TTEETSK(Gluratylation)PK_]
collision cross section [1]: 352.76 ± 0.56 Å²
